Paper PMC3485190, “Crystal Structures of Lysine-Preferred Racemases, the Non-Antibiotic Selectable Markers for Transgenic Plants” (PLoS ONE, 2012)

Tests used:
NCCCC[C@H](N)C(=O)O = test system: T1, NCCCC[C@H](N)C(=O)O; assay: steady-state racemization, chiral HPLC; format: biochemical, Pseudomonas putida; details: 100 mM CHES-NaOH pH 9.0, 30 µM PLP, 50°C
T1 construct: homodimer; first 25 residues (signal peptide) removed by auto-cleavage
Source text: steady-state racemization, chiral HPLC on Bar (broad-specificity amino acid racemase)

[1] = biological target: T2, Bar (broad-specificity amino acid racemase) (Pseudomonas putida, UniProt I6LNY0); assay: X-ray crystallography, […] Å; format: binding; details: co-crystallized with 4 mM L-lysine, pH 9.0; covalent external aldimine with PLP
T2 construct: homodimer; first 25 residues (signal peptide) removed by auto-cleavage
T2 sequence (I6LNY0 26-409): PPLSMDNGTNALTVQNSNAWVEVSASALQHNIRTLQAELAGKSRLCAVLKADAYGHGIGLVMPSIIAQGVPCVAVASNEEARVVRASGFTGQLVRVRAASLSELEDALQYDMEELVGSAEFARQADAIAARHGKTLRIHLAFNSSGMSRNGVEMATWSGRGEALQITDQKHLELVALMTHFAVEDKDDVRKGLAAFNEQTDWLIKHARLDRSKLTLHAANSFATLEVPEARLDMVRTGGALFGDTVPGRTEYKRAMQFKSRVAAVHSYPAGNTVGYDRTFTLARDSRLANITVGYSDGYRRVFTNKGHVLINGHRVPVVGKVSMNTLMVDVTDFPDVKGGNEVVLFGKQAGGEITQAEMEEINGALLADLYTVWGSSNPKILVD

[2] = biological target: T2, Bar (broad-specificity amino acid racemase); assay: X-ray crystallography, […] Å; format: binding; details: covalent, internal aldimine with Lys75; pH 8.5
[3] = substrate: NCCCC[C@H](N)C(=O)O; assay: steady-state racemization, chiral HPLC; format: biochemical, Proteus mirabilis; details: 100 mM CHES-NaOH pH 9.0, 30 µM PLP, 50°C
Source text: (§1) steady-state racemization, chiral HPLC on Lyr (lysine racemase)

[4] = substrate: N=C(N)NCCC[C@H](N)C(=O)O; assay: steady-state racemization, chiral HPLC; format: biochemical, Proteus mirabilis; details: 100 mM CHES-NaOH pH 9.0, 30 µM PLP, 50°C
Source text: as §1

[5] = biological target: the molecule itself; assay: crystal structure; Lyr (2.5 mg/ml), sitting-drop vapor diffusion at 20°C, 0.1 M sodium acetate pH 4.6, 0.05 M lithium chloride, 29% PEG 8000; space group C222(1), one molecule per asymmetric unit, dimer by a crystallographic two-fold axis; 1.74 Å
[6] = biological target: the molecule itself; assay: crystal structure; apo Bar (4.7 mg/ml in 10% glycerol), sitting-drop vapor diffusion at 20°C, 0.1 M Tris-HCl pH 8.5, 2.0 M ammonium sulfate; space group C2, two molecules per asymmetric unit; 2.45 Å

Molecule: Bar (broad-specificity amino acid racemase) (Pseudomonas putida; A393Y)
- Km (NCCCC[C@H](N)C(=O)O): 33.9 ± 3.5 mM
- kcat (NCCCC[C@H](N)C(=O)O): 24.3 ± 2.18 s⁻¹
- kcat/Km (NCCCC[C@H](N)C(=O)O): 715 M⁻¹ s⁻¹

Molecule: NCCCC[C@H](N)C(=O)O [L-Lys]
- X-ray crystallography, 3.10 Å [1]: The complex-Bar structure was established (Figure 7A, B) by co-crystallizing Bar with L-lysine.

Molecule: Cc1ncc(COP(=O)(O)O)c(C=O)c1O [PLP]
- X-ray crystallography, 2.45 Å [2]: fit with an aldimine bond between the Lys75 Nζ and the PLP C4A

B1: Lysine racemase (Lyr) from Proteus mirabilis BCRC10725 (enzyme)
chain: CQQPVNYNPPATQVAQVQPAIVNNSWIEISRSALDFNVKKVQSLLGKQSSLCAVLKGDAYGHDLSLVAPIMIENNVKCIGVTNNQELKEVRDLGFKGRLMRVRNATEQEMAQATNYNVEELIGDLDMAKRLDAIAKQQNKVIPIHLALNSGGMSRNGLEVDNKSGLEKAKQISQLANLKVVGIMSHYPEEDANKVREDLARFKQQSQQVLEVMGLERNNVTLHMANTFATITVPESWLDMVRVGGIFYGDTIASTDYKRVMTFKSNIASINYYPKGNTVGYDRTYTLKRDSVLANIPVGYADGYRRVFSNAGHALIAGQRVPVLGKTSMNTVIVDITSLNNIKPGDEVVFFGKQGNSEITAEEIEDISGALFTEMSILWGATNQRVLVD
notes: also called wild-type Lyr
- Km [3]: 21.8 ± 0.5 mM
- kcat [3]: 55.4 ± 1.13 s⁻¹
- kcat/Km [3]: 2540 M⁻¹ s⁻¹
- Km [4]: 14.9 ± 1.0 mM
- kcat [4]: 10.8 ± 0.583 s⁻¹
- kcat/Km [4]: 727 M⁻¹ s⁻¹
- stoichiometry N [5]: 2

B2: Broad-specificity amino acid racemase (Bar) from Pseudomonas putida DSM84 (enzyme, UniProt I6LNY0 26-409, looked up)
chain: PPLSMDNGTNALTVQNSNAWVEVSASALQHNIRTLQAELAGKSRLCAVLKADAYGHGIGLVMPSIIAQGVPCVAVASNEEARVVRASGFTGQLVRVRAASLSELEDALQYDMEELVGSAEFARQADAIAARHGKTLRIHLAFNSSGMSRNGVEMATWSGRGEALQITDQKHLELVALMTHFAVEDKDDVRKGLAAFNEQTDWLIKHARLDRSKLTLHAANSFATLEVPEARLDMVRTGGALFGDTVPGRTEYKRAMQFKSRVAAVHSYPAGNTVGYDRTFTLARDSRLANITVGYSDGYRRVFTNKGHVLINGHRVPVVGKVSMNTLMVDVTDFPDVKGGNEVVLFGKQAGGEITQAEMEEINGALLADLYTVWGSSNPKILVD
modifications: PLP bound to Lys75 by an internal aldimine bond (apo crystal); in the crystal with L-lysine PLP forms the external aldimine with the substrate
notes: Broad-specificity amino acid racemase (Bar, E.C. 5.1.1.10), Pseudomonas putida DSM84, gene bar amplified from chromosomal DNA into pET21a; the first 25 residues contained the signal peptide and were removed by auto-cleavage; Head-to-tail homodimer in the crystal (two molecules in the asymmetric unit); also called wild-type Bar; complex-Bar (with L-lysine)
- stoichiometry N [6]: 2
